Reference: publication PMC10208570, “Peptidomimetic antibiotics disrupt the lipopolysaccharide transport bridge of drug-resistant Enterobacteriaceae” (Science Advances, 2023)

Target: LptAm^Q62L (E. coli) (E. coli (ATCC 25922))
Test: fluorescence polarisation; indirect (competition) assay: unlabeled peptide or protein serially diluted into a 1:1 mixture of Lpt protein and 6-FL (2x stock 70 nM); 50 mM Na-Pi pH 7, 150 mM NaCl, 0.05% Tween 20; incubated overnight at 4°C, read at 25°C; triplicates; Ki from IC50 by Cheng-Prusoff

B1: mLptA (E. coli), LptA(25-185) E39V M47A R76A (domain or fragment)
chain: GAFAVTGDTDQPIHIVSDQQSLDAQGNVVTFTGNVIVTQGTIKINADKVVVTAPGGEQGKEVIDGYGKPATFYQMQDNGKPVEGHASQMHYELAKDFVVLTGNAYLQQVDSNIKGDKITYLVKEQKMQAFSDKGKRVTTVLVPSQLQDKNNKGQTPAQKKGN
- Ki: 69 nM
